Like-named read-outs stand apart in the source and are kept apart here.
Tests used:
[1] = biological target: T1, human IL-17RA on HT1080 cells (human, UniProt Q96F46 33-866); assay: cell-based or functional assay
T1 sequence: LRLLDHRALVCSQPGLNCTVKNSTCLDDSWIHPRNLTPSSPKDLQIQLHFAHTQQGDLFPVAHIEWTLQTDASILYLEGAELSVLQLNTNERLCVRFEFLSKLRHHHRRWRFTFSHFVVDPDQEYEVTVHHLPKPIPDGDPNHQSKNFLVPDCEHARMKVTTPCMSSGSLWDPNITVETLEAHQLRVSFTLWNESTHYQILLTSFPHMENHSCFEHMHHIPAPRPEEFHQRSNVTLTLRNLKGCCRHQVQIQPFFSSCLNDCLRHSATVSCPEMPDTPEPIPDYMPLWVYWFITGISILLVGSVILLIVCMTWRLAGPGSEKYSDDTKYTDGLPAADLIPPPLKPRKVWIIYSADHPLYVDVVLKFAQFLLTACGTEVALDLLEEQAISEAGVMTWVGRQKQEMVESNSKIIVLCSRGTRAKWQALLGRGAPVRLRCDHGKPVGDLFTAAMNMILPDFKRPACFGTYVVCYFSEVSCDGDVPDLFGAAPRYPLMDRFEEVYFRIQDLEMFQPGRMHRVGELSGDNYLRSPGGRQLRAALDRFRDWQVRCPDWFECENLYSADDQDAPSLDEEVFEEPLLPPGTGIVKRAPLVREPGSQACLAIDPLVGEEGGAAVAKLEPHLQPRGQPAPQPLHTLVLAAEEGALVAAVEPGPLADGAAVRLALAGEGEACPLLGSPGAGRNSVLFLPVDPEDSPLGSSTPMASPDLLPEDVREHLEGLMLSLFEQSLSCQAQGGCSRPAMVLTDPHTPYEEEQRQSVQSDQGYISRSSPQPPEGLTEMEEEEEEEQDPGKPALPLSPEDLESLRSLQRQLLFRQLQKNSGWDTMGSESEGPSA

IL-17RD = biological target: T2, IL-17RD (UniProt Q8NFM7 17-299, limits assumed); assay: specificity ELISA, antigen coated, anti-His-HRP detection
T2 sequence (looked up): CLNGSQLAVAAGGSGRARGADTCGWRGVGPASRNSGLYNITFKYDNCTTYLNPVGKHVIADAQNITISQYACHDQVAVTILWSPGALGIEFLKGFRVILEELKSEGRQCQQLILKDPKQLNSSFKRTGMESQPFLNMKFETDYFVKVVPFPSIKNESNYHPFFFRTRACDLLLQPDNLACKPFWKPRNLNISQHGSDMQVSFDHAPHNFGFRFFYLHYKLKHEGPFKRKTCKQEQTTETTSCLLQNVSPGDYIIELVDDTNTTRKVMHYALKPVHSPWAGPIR
Procedure: The binding ELISA for crude or purified VH was similar to the serum ELISA and phage ELISA, previously described, mostly differing in the final detection steps. Briefly, antigen was immobilised on maxisorb plates (Nunc 443404) by adding 50 ul volumes at 0.1-1 ug/ml in PBS and incubating at 4° C. overnight. Following coating, the antigen solution was aspirated and the plates were washed using PBS (prepared from PBS tablets, Oxoid cat no. BR0014G) supplemented with 0.05% Tween® 20 (sigma P1379), followed by washes with PBS without added Tween®. To block non-specific protein interactions, a solution of 3% skimmed milk powder (Marvel) in PBS was added to the wells and the plate was incubated for at least one hour at room temperature. Dilutions of periplasmic extract or purified VH in 3% Marvel/PBS were prepared in polypropylene tubes or plates and incubated for at least one hour at room temperature prior to transfer to the blocked ELISA plate where a further incubation of at least one hour took place. Unbound protein was then washed away using repetitive washes with PBS/Tween® followed by PBS. A solution of HRP-conjugated anti-His Ab (Miltenyi Biotec, 130-092-785), prepared at 1:1000 dilution in PBS/3% Marvel was then added to each well and a further incubation at room temperature for at least one hour took place. Unbound detection antibody was removed by repeated washing using PBS/Tween® and PBS. The ELISA was then developed using TMB substrate (Sigma cat. no. T0440) and the reaction was stopped after 10 minutes by the addition of 0.5M H₂SO₄ solution (Sigma cat. no. 320501). Absorbances were determined by reading at 450 nm.

[2] = biological target: T3, recombinant human IL-17RA Fc fusion protein (R&D Systems 177-IR-100) (human, UniProt Q96F46 33-320); assay: BIAcore T200 single-cycle kinetics, IL-17RA-Fc captured on protein G chip, VH as analyte
T3 construct: Bought protein; not shown: Fc domain of human IgG1
T3 sequence: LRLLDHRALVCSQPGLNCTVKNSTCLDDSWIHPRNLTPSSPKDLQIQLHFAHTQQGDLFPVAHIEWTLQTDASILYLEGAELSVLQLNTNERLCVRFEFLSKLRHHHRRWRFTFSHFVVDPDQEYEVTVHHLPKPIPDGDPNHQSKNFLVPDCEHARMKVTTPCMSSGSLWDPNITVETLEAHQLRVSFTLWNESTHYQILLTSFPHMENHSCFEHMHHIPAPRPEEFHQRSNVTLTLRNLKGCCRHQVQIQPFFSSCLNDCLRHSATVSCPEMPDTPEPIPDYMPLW
Procedure: (§1) Binding kinetics of anti-IL-17RA VH antibodies were measured on a BIAcore® T200 instrument. For IL-17RA, first a protein G chip was prepared by diluting protein G to 20 ug/ml in acetate buffer, pH 4 (BIAcore®, cat# BR-100-49) and then coupled 1200 RU to a CM5 Series S chip using amine coupling chemistry. This surface was then used to capture IL-17RA Fc fusion protein from solution: IL-17RA at 10 ug/ml in HBS injected for 10 seconds at 30 ul/min flow rate would capture approximately 100-150 RU of IL-17RA onto the protein G surface.
(§2) Binding kinetics of anti-IL-17RA VH antibodies were determined by single-cycle kinetics. VH antibodies were prepared in dilution series (typically 1:3 dilution series starting with 100 nM VH at the highest concentration), and then injected over the antigen coated surfaces and also a blank surface, starting with the lowest concentration of VH and then working progressively up to the highest concentration. VH binding kinetics were then determined from the (blank subtracted) sensorgram traces using 1:1 binding models and BIAevaluation software.

[3] = biological target: T3, recombinant human IL-17RA Fc fusion …; assay: as above; remark: listed apart in the source
Procedure: as §1, §2

Cell assay IC50 [1]: 280 nM
binding result (IL-17RD): no binding
Kd [2]: 7 nM
Kd [3]: 7 nM
koff [3]: 0.00263 s⁻¹
kon [3]: 368000 M⁻¹ s⁻¹
B1: VH clone 2.1 (VHH)
VHH: QVQLVQSGAEVKKPGASVKVSCKASGYPFTSYDINWVRQATGQSLEWMGWMNPNSGDTVYAQKFQGRVTMTRNTSISTAYMELSSLRSEDTAVYFCARGRRDDWKNNYWGQGTLVTVSS
notes: Human VH single domain antibody, no light chain; Parent clone of family 2; also called VH 2.1

— US20180215829A1 (CRESCENDO BIOLOGICS, published 2018)
